Measured values taken from patent publication US20170096652.

Molecular target: transcription factor DdrO (Gene ID: 1798752; NP_296294.1) of Deinococcus radiodurans

B1: PprI protease (gene pprI, dr_0167; GeneID: 1798483; NCBI-GI: 15805204) of Deinococcus radiodurans (protein)
chain: MPSANVSPPCPSGVRGGGMGPKAKAEASKPHPQIPVKLPFVTAPDALAAAKARMRDLAAAYVAALPGRDTHSLMAGVPGVDLKFMPLGWRDGAFDPEHNVILINSAARPERQRFTLAHEIGHAILLGDDDLLSDIHDAYEGERLEQVIETLCNVAAAAILMPEPVIAEMLERFGPTGRALAELAKRAEVSASSALYALTEQTPVPVIYAVCAPGKPPREQAASDEDAGPSTEKVLTVRASSSTRGVKYTLASGTPVPADHPAALALATGMEVREESYVPFRSGRKMKAEVDAYPSRGIVAVSFEFDPARLGRKDSEQADRDEPQDAAQ
PprI cleavage activity detected by Western blotting: PprI cleaves DdrO into two fragments
protease activity in vitro, SDS-PAGE (40 minutes, 2.0 mM MnCl2): DdrO was cleaved by PprI into two fragments
protease activity in vitro, SDS-PAGE (40 minutes, 3.0 mM MnCl2): DdrO was cleaved by PprI into two fragments
protease activity in vitro, SDS-PAGE (40 minutes, 5.0 mM MnCl2): DdrO was cleaved by PprI into two fragments
